Laboratory results as given in US20240400654A1.
Changes are numbered by the printed parent chain. Names may count otherwise. “And” between values parts separate entries of the source, which are not always exact repeats. Identical values can stand only once.

B1: KB001 mouse Fab variant VL A56N (Fab, V domains shown)
VH: EVQLKQSGPGLVAPSQSLSITCTVSGFSLSIYSVHWVRQPPGKGLEWLGMIWGGGSSDYNSALKSRLSISKDNSKSQVFLKMNSLQTDDTAMYYCARNGNFYAMDYWGQGTSVTVSS
VL: QIVLTQSPAIMSASLGERVTMTCTASSSVSSSFLHWYQQKPGSSPQLWIYSTSNLNSGVPARFSGSGSGTSYSLTISSMEAEDAATYYCHQYHHSPYIYTFGGGTKLEIK
B2: KB001 mouse Fab variant VL Y92D (Fab, V domains shown)
VH: B1 VH
VL: B1 VL with N56A, Y92D
B3: KB001 mouse Fab variant VL Y92N (Fab, V domains shown)
VH: B1 VH
VL: B1 VL with N56A, Y92N
B4: KB001 mouse Fab variant VL A56V (Fab, V domains shown)
VH: B1 VH
VL: B1 VL with N56V
B5: KB001 mouse Fab variant VL Q91E (Fab, V domains shown)
VH: B1 VH
VL: B1 VL with N56A, Q91E
B6: KB001 mouse Fab variant VL S57I (Fab, V domains shown)
VH: B1 VH
VL: B1 VL with N56A, S57I
B7: KB001 mouse Fab variant VL S95F (Fab, V domains shown)
VH: B1 VH
VL: B1 VL with N56A, S95F
B8: KB001 mouse Fab variant VL S57L (Fab, V domains shown)
VH: B1 VH
VL: B1 VL with N56A, S57L
B9: KB001 mouse Fab variant VL S57N (Fab, V domains shown)
VH: B1 VH
VL: B1 VL with N56A, S57N
B10: KB001 mouse Fab variant VL H93N (Fab, V domains shown)
VH: B1 VH
VL: B1 VL with N56A, H93N
B11: KB001 mouse Fab variant VL H94F (Fab, V domains shown)
VH: B1 VH
VL: B1 VL with N56A, H94F
B12: KB001 mouse Fab variant VL A56S (Fab, V domains shown)
VH: B1 VH
VL: B1 VL with N56S
B13: KB001 mouse Fab variant VL H90W (Fab, V domains shown)
VH: B1 VH
VL: B1 VL with N56A, H90W
B14: KB001 mouse Fab variant VL H90L (Fab, V domains shown)
VH: B1 VH
VL: B1 VL with N56A, H90L
B15: KB001 mouse Fab variant VL S57M (Fab, V domains shown)
VH: B1 VH
VL: B1 VL with N56A, S57M
B16: KB001 mouse Fab variant VL S57A (Fab, V domains shown)
VH: B1 VH
VL: B1 VL with N56A, S57A
B17: KB001 mouse Fab variant VL S95E (Fab, V domains shown)
VH: B1 VH
VL: B1 VL with N56A, S95E
B18: KB001 mouse Fab variant VL S57R (Fab, V domains shown)
VH: B1 VH
VL: B1 VL with N56A, S57R
B19: KB001 mouse Fab variant VL S57W (Fab, V domains shown)
VH: B1 VH
VL: B1 VL with N56A, S57W
B20: KB001 mouse Fab variant VL S57E (Fab, V domains shown)
VH: B1 VH
VL: B1 VL with N56A, S57E
B21: KB001 mouse Fab variant VL Q91M (Fab, V domains shown)
VH: B1 VH
VL: B1 VL with N56A, Q91M
B22: KB001 mouse Fab variant VL H94Y (Fab, V domains shown)
VH: B1 VH
VL: B1 VL with N56A, H94Y
B23: KB001 mouse Fab variant VL S57K (Fab, V domains shown)
VH: B1 VH
VL: B1 VL with N56A, S57K
B24: KB001 mouse Fab variant VL A56M (Fab, V domains shown)
VH: B1 VH
VL: B1 VL with N56M
B25: KB001 mouse Fab variant VL A56P (Fab, V domains shown)
VH: B1 VH
VL: B1 VL with N56P
B26: KB001 mouse Fab variant VL A56Q (Fab, V domains shown)
VH: B1 VH
VL: B1 VL with N56Q
B27: KB001 mouse Fab variant VL S57Q (Fab, V domains shown)
VH: B1 VH
VL: B1 VL with N56A, S57Q
B28: KB001 mouse Fab variant VL A56R (Fab, V domains shown)
VH: B1 VH
VL: B1 VL with N56R
B29: KB001 mouse Fab variant VL S57F (Fab, V domains shown)
VH: B1 VH
VL: B1 VL with N56A, S57F

What follows are binders tested against HRgpA-6H (Porphyromonas gingivalis) (UniProt P28784) (assay: ELISA on coated HRgpA-6H, OD relative to parental Fab).
UniProt P28784, sequence (P28784 228-860 limits assumed): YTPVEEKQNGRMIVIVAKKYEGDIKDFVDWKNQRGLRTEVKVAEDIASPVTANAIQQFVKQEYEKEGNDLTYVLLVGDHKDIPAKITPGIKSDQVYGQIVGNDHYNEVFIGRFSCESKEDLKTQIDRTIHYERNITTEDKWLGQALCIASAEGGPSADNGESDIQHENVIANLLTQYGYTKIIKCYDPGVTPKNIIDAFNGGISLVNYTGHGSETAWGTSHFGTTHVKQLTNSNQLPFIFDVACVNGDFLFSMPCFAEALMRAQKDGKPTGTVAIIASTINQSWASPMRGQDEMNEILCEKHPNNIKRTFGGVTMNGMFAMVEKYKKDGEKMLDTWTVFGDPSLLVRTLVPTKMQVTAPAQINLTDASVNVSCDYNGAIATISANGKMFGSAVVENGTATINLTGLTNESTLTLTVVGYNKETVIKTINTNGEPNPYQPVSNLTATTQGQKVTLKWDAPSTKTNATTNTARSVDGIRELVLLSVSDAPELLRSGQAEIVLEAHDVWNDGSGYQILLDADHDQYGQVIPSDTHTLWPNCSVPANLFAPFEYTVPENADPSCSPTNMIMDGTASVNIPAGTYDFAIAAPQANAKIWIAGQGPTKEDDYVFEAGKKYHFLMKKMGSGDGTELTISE

**Q.** With B1 as the binder, how does the Ratio OD(Variant)/OD(WT) read?
**A.** 0.873 fold and 0.95 fold

**Q.** Which Ratio OD(Variant)/OD(WT) does the source give for B2 here?
**A.** 0.805 fold

**Q.** For B3, which Ratio OD(Variant)/OD(WT) is on record?
**A.** 0.821 fold

**Q.** How did the Ratio OD(Variant)/OD(WT) turn out when B4 was run?
**A.** 0.974 fold and 0.975 fold

**Q.** How did the Ratio OD(Variant)/OD(WT) turn out when B5 was run?
**A.** 0.823 fold and 0.806 fold and 0.814 fold

**Q.** With B6 as the binder, how does the Ratio OD(Variant)/OD(WT) read?
**A.** 0.97 fold

**Q.** With B7 as the binder, how does the Ratio OD(Variant)/OD(WT) read?
**A.** 0.911 fold

**Q.** With B8 as the binder, how does the Ratio OD(Variant)/OD(WT) read?
**A.** 0.958 fold

**Q.** With B9 as the binder, how does the Ratio OD(Variant)/OD(WT) read?
**A.** 0.997 fold

**Q.** How did the Ratio OD(Variant)/OD(WT) turn out when B10 was run?
**A.** 0.91 fold

**Q.** For B11, which Ratio OD(Variant)/OD(WT) is on record?
**A.** 0.838 fold

**Q.** For B12, which Ratio OD(Variant)/OD(WT) is on record?
**A.** 0.947 fold and 0.921 fold and 0.949 fold

**Q.** How did the Ratio OD(Variant)/OD(WT) turn out when B13 was run?
**A.** 0.886 fold

**Q.** How did the Ratio OD(Variant)/OD(WT) turn out when B14 was run?
**A.** 0.911 fold and 0.806 fold

**Q.** B15 was tested. Which Ratio OD(Variant)/OD(WT) did it give?
**A.** 0.914 fold

**Q.** For B16, which Ratio OD(Variant)/OD(WT) is on record?
**A.** 0.988 fold

**Q.** B17 was tested. Which Ratio OD(Variant)/OD(WT) did it give?
**A.** 0.931 fold and 0.893 fold

**Q.** With B18 as the binder, how does the Ratio OD(Variant)/OD(WT) read?
**A.** 0.915 fold

**Q.** With B19 as the binder, how does the Ratio OD(Variant)/OD(WT) read?
**A.** 0.961 fold

**Q.** For B20, which Ratio OD(Variant)/OD(WT) is on record?
**A.** 0.921 fold

**Q.** Which Ratio OD(Variant)/OD(WT) does the source give for B21 here?
**A.** 0.879 fold

**Q.** B22 was tested. Which Ratio OD(Variant)/OD(WT) did it give?
**A.** 0.942 fold

**Q.** With B23 as the binder, how does the Ratio OD(Variant)/OD(WT) read?
**A.** 0.873 fold

**Q.** B24 was tested. Which Ratio OD(Variant)/OD(WT) did it give?
**A.** 0.983 fold and 0.86 fold

**Q.** Which Ratio OD(Variant)/OD(WT) does the source give for B25 here?
**A.** 0.917 fold

**Q.** For B26, which Ratio OD(Variant)/OD(WT) is on record?
**A.** 0.865 fold

**Q.** Which Ratio OD(Variant)/OD(WT) does the source give for B27 here?
**A.** 0.807 fold

**Q.** For B28, which Ratio OD(Variant)/OD(WT) is on record?
**A.** 0.893 fold and 0.9 fold and 0.921 fold

**Q.** Which Ratio OD(Variant)/OD(WT) does the source give for B29 here?
**A.** 0.963 fold and 0.965 fold and 0.977 fold

These binders were tested against HRgpA-6H (Porphyromonas gingivalis) (UniProt P28784) (assay: ELISA, FASEBA Fab supernatant on coated HRgpA-6H).

**Q.** How did the OD450 nm turn out when B1 was run?
**A.** 0.712 and 0.775

**Q.** For B2, which OD450 nm is on record?
**A.** 0.758

**Q.** How did the OD450 nm turn out when B3 was run?
**A.** 0.773

**Q.** How did the OD450 nm turn out when B4 was run?
**A.** 0.794 and 0.795

**Q.** B5 was tested. Which OD450 nm did it give?
**A.** 0.709 and 0.694 and 0.701

**Q.** Which OD450 nm does the source give for B6 here?
**A.** 0.791

**Q.** With B7 as the binder, how does the OD450 nm read?
**A.** 0.837

**Q.** For B8, which OD450 nm is on record?
**A.** 0.781

**Q.** For B9, which OD450 nm is on record?
**A.** 0.813

**Q.** B10 was tested. Which OD450 nm did it give?
**A.** 0.857

**Q.** B11 was tested. Which OD450 nm did it give?
**A.** 0.77

**Q.** Which OD450 nm does the source give for B12 here?
**A.** 0.772 and 0.751 and 0.774

**Q.** Which OD450 nm does the source give for B13 here?
**A.** 0.763

**Q.** Which OD450 nm does the source give for B14 here?
**A.** 0.785 and 0.694

**Q.** Which OD450 nm does the source give for B15 here?
**A.** 0.745

**Q.** B16 was tested. Which OD450 nm did it give?
**A.** 0.806

**Q.** With B17 as the binder, how does the OD450 nm read?
**A.** 0.855 and 0.82

**Q.** For B18, which OD450 nm is on record?
**A.** 0.746

**Q.** How did the OD450 nm turn out when B19 was run?
**A.** 0.784

**Q.** How did the OD450 nm turn out when B20 was run?
**A.** 0.751

**Q.** With B21 as the binder, how does the OD450 nm read?
**A.** 0.757

**Q.** For B22, which OD450 nm is on record?
**A.** 0.865

**Q.** B23 was tested. Which OD450 nm did it give?
**A.** 0.712

**Q.** How did the OD450 nm turn out when B24 was run?
**A.** 0.802 and 0.701

**Q.** With B25 as the binder, how does the OD450 nm read?
**A.** 0.748

**Q.** For B26, which OD450 nm is on record?
**A.** 0.705

**Q.** For B27, which OD450 nm is on record?
**A.** 0.658

**Q.** B28 was tested. Which OD450 nm did it give?
**A.** 0.728 and 0.734 and 0.751

**Q.** Which OD450 nm does the source give for B29 here?
**A.** 0.785 and 0.787 and 0.797
